T1: human IL-12 (human, UniProt P29459 23-219; P29460 23-328)
T1 sequence (looked up) 1: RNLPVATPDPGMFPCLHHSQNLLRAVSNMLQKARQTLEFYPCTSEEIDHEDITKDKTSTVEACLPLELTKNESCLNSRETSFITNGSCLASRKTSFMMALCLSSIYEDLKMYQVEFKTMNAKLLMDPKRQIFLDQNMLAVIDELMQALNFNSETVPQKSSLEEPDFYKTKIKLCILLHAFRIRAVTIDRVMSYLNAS
T1 sequence (looked up) 2: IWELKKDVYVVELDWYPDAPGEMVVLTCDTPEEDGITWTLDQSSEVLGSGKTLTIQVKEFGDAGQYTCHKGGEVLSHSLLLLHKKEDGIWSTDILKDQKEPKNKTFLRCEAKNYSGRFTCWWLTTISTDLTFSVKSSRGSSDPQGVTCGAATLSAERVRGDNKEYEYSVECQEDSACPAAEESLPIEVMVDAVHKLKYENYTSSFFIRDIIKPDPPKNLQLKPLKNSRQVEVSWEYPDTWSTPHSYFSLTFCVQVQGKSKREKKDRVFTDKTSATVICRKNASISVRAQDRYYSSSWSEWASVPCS


Tests used:
[1] = molecular target: T2, human IL-18 (human, UniProt Q14116 37-193); experiment: cell-based or functional assay
[2] = molecular target: T1, human IL-12; experiment: cell-based or functional assay
[3] = molecular target: T2, human IL-18; experiment: SPR (Biacore)
[4] = molecular target: T1, human IL-12; experiment: SPR (Biacore)

Binder	Potency (IC50, M), KG-1 bioassay [1] [M]	Potency (IC50, M), IL-12-induced IFN-γ production by PHA blast cells [2] [M]	Kd [3] [nM]	Kd [4] [nM]
DVD1812SL (DVD1812HC-SL / DVD1812LC-SL) (bispecific antibody) chain 1: not shown chain 2: EIVMTQSPATLSVSPGERATLSCRASESISSNLAWYQQKPGQAPRLFIYTASTRATDIPARFSGSGSGTEFTLTISSLQSEDFAVYYCQQYNNWPSITFGQGTRLEIKRTVAAPQSVLTQPPSVSGAPGQRVTISCSGSRSNIGSNTVKWYQQLPGTAPKLLIYYNDQRPSGVPDRFSGSKSGTSASLAITGLQAEDEADYYCQSYDRYTHPALLFGTGTKVTVLGTVAAPSVFIFPPSDEQLKSGTASVVCLLNNFYPREAKVQWKVDNALQSGNSQESVTEQDSKDSTYSLSSTLTLSKADYEKHKVYACEVTHQGLSSPVTKSFNRGEC	4e-11	3.66e-10	0.191	1.82
DVD1812LL (DVD1812HC-LL / DVD1812LC-LL) (bispecific antibody) heavy: not shown light: EIVMTQSPATLSVSPGERATLSCRASESISSNLAWYQQKPGQAPRLFIYTASTRATDIPARFSGSGSGTEFTLTISSLQSEDFAVYYCQQYNNWPSITFGQGTRLEIKRTVAAPSVFIFPPQSVLTQPPSVSGAPGQRVTISCSGSRSNIGSNTVKWYQQLPGTAPKLLIYYNDQRPSGVPDRFSGSKSGTSASLAITGLQAEDEADYYCQSYDRYTHPALLFGTGTKVTVLG	7.8e-11	1.18e-10	0.162	0.113

— patent US20130004416A1 (published 2013)
